# B1: TNFa aptamer polyT linker (hTNFa long rod aptamer) (ssDNA)
# DNA: TTTGGTGGATGGCGCAGTCGGCGACAA
# Molecular target: recombinant human TNF-alpha (biotinylated, R&D Systems BT210) (human, UniProt P01375 77-233)
# Test: flow cytometry (FACS) bead binding; TT linker did not affect binding; PBS-/- (no Ca/Mg) with 0.005% Tween-20, 1 h at 37 C, biotinylated TNFa on streptavidin magnetic beads; pH not stated
# Settings: protein: commercial; tags: biotin; chain copies: 3; label: 5' ATTO647N
# Chain of recombinant human TNF-alpha (biotinylated, R&D Systems BT210) (P01375 77-233): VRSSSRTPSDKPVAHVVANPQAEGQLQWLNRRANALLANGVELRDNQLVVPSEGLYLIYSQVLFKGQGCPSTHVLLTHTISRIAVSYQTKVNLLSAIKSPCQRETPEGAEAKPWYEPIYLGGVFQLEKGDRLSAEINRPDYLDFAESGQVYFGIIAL
binder,measurement,value
B1,binding result,binds
